Laboratory results taken from patent publication US20260265329A1, “POLYPEPTIDE AND DERIVATIVE THEREOF, COMPOSITION, AND USE THEREOF” (HANGZHOU SCIWIND BIOSCIENCES CO., LTD., priority 2023, published 2026).
Starred links: 1 amine or outer side, 2 acyl side, 3 side chain; linkers in the order of their positions; H or OH if unused. Non-standard residues stand in square brackets, D forms with d. Primed or numbered codes have the meaning given here. *: point of attachment. C20 diacid = O=C(O)CCCCCCCCCCCCCCCCCCC(=O)*; γGlu = O=C(O)[C@H](CCC(=O)[*:2])N[*:1]; βAsp = O=C(O)[C@H](CC(=O)[*:2])N[*:1]; Hyp = O=C(O)[C@@H]1C[C@@H](O)CN1; Inp′ = not defined here; Trx′ = not defined here; AEEA = NCCOCCOCC(=O)O

B1: M28 (peptide)
peptide: {C20 diacid}-DASQLSTAATQRLADFLRHSSNNLKPILPPTNVGSNT[Hyp]-NH2
SMILES: CC[C@H](C)[C@H](NC(=O)[C@@H]1CCCN1C(=O)[C@H](CCCCN)NC(=O)[C@H](CC(C)C)NC(=O)[C@H](CC(N)=O)NC(=O)[C@H](CC(N)=O)NC(=O)[C@H](CO)NC(=O)[C@H](CO)NC(=O)[C@H](Cc1c[nH]cn1)NC(=O)[C@H](CCCNC(=N)N)NC(=O)[C@H](CC(C)C)NC(=O)[C@H](Cc1ccccc1)NC(=O)[C@H](CC(=O)O)NC(=O)[C@H](C)NC(=O)[C@H](CC(C)C)NC(=O)[C@H](CCCNC(=N)N)NC(=O)[C@H](CCC(N)=O)NC(=O)[C@@H](NC(=O)[C@H](C)NC(=O)[C@H](C)NC(=O)[C@@H](NC(=O)[C@H](CO)NC(=O)[C@H](CC(C)C)NC(=O)[C@H](CCC(N)=O)NC(=O)[C@H](CO)NC(=O)[C@H](C)NC(=O)[C@H](CC(=O)O)NC(=O)CCCCCCCCCCCCCCCCCCC(=O)O)[C@@H](C)O)[C@@H](C)O)C(=O)N[C@@H](CC(C)C)C(=O)N1CCC[C@H]1C(=O)N1CCC[C@H]1C(=O)N[C@H](C(=O)N[C@@H](CC(N)=O)C(=O)N[C@H](C(=O)NCC(=O)N[C@@H](CO)C(=O)N[C@@H](CC(N)=O)C(=O)N[C@H](C(=O)N1C[C@H](O)C[C@H]1C(N)=O)[C@@H](C)O)C(C)C)[C@@H](C)O
B2: M31 (peptide)
peptide: {C20 diacid-γGlu-AEEA-AEEA}-ASQLSTAATQRLADFLRHSSNNLKPILPPTNVGSNT[Hyp]-NH2
SMILES: CC[C@H](C)[C@H](NC(=O)[C@@H]1CCCN1C(=O)[C@H](CCCCN)NC(=O)[C@H](CC(C)C)NC(=O)[C@H](CC(N)=O)NC(=O)[C@H](CC(N)=O)NC(=O)[C@H](CO)NC(=O)[C@H](CO)NC(=O)[C@H](Cc1c[nH]cn1)NC(=O)[C@H](CCCNC(=N)N)NC(=O)[C@H](CC(C)C)NC(=O)[C@H](Cc1ccccc1)NC(=O)[C@H](CC(=O)O)NC(=O)[C@H](C)NC(=O)[C@H](CC(C)C)NC(=O)[C@H](CCCNC(=N)N)NC(=O)[C@H](CCC(N)=O)NC(=O)[C@@H](NC(=O)[C@H](C)NC(=O)[C@H](C)NC(=O)[C@@H](NC(=O)[C@H](CO)NC(=O)[C@H](CC(C)C)NC(=O)[C@H](CCC(N)=O)NC(=O)[C@H](CO)NC(=O)[C@H](C)NC(=O)COCCOCCNC(=O)COCCOCCNC(=O)CC[C@H](NC(=O)CCCCCCCCCCCCCCCCCCC(=O)O)C(=O)O)[C@@H](C)O)[C@@H](C)O)C(=O)N[C@@H](CC(C)C)C(=O)N1CCC[C@H]1C(=O)N1CCC[C@H]1C(=O)N[C@H](C(=O)N[C@@H](CC(N)=O)C(=O)N[C@H](C(=O)NCC(=O)N[C@@H](CO)C(=O)N[C@@H](CC(N)=O)C(=O)N[C@H](C(=O)N1C[C@H](O)C[C@H]1C(N)=O)[C@@H](C)O)C(C)C)[C@@H](C)O
B3: M32 (peptide)
peptide: {C20 diacid}-E[AEEA][AEEA]ASQLSTAATQRLADFLRHSSNNLKPILPPTNVGSNT[Hyp]-NH2
SMILES: CC[C@H](C)[C@H](NC(=O)[C@@H]1CCCN1C(=O)[C@H](CCCCN)NC(=O)[C@H](CC(C)C)NC(=O)[C@H](CC(N)=O)NC(=O)[C@H](CC(N)=O)NC(=O)[C@H](CO)NC(=O)[C@H](CO)NC(=O)[C@H](Cc1c[nH]cn1)NC(=O)[C@H](CCCNC(=N)N)NC(=O)[C@H](CC(C)C)NC(=O)[C@H](Cc1ccccc1)NC(=O)[C@H](CC(=O)O)NC(=O)[C@H](C)NC(=O)[C@H](CC(C)C)NC(=O)[C@H](CCCNC(=N)N)NC(=O)[C@H](CCC(N)=O)NC(=O)[C@@H](NC(=O)[C@H](C)NC(=O)[C@H](C)NC(=O)[C@@H](NC(=O)[C@H](CO)NC(=O)[C@H](CC(C)C)NC(=O)[C@H](CCC(N)=O)NC(=O)[C@H](CO)NC(=O)[C@H](C)NC(=O)COCCOCCNC(=O)COCCOCCNC(=O)[C@H](CCC(=O)O)NC(=O)CCCCCCCCCCCCCCCCCCC(=O)O)[C@@H](C)O)[C@@H](C)O)C(=O)N[C@@H](CC(C)C)C(=O)N1CCC[C@H]1C(=O)N1CCC[C@H]1C(=O)N[C@H](C(=O)N[C@@H](CC(N)=O)C(=O)N[C@H](C(=O)NCC(=O)N[C@@H](CO)C(=O)N[C@@H](CC(N)=O)C(=O)N[C@H](C(=O)N1C[C@H](O)C[C@H]1C(N)=O)[C@@H](C)O)C(C)C)[C@@H](C)O
B4: M33 (peptide)
peptide: {C20 diacid-βAsp-AEEA-AEEA}-ASQLSTAATQRLADFLRHSSNNLKPILPPTNVGSNT[Hyp]-NH2
SMILES: CC[C@H](C)[C@H](NC(=O)[C@@H]1CCCN1C(=O)[C@H](CCCCN)NC(=O)[C@H](CC(C)C)NC(=O)[C@H](CC(N)=O)NC(=O)[C@H](CC(N)=O)NC(=O)[C@H](CO)NC(=O)[C@H](CO)NC(=O)[C@H](Cc1c[nH]cn1)NC(=O)[C@H](CCCNC(=N)N)NC(=O)[C@H](CC(C)C)NC(=O)[C@H](Cc1ccccc1)NC(=O)[C@H](CC(=O)O)NC(=O)[C@H](C)NC(=O)[C@H](CC(C)C)NC(=O)[C@H](CCCNC(=N)N)NC(=O)[C@H](CCC(N)=O)NC(=O)[C@@H](NC(=O)[C@H](C)NC(=O)[C@H](C)NC(=O)[C@@H](NC(=O)[C@H](CO)NC(=O)[C@H](CC(C)C)NC(=O)[C@H](CCC(N)=O)NC(=O)[C@H](CO)NC(=O)[C@H](C)NC(=O)COCCOCCNC(=O)COCCOCCNC(=O)C[C@H](NC(=O)CCCCCCCCCCCCCCCCCCC(=O)O)C(=O)O)[C@@H](C)O)[C@@H](C)O)C(=O)N[C@@H](CC(C)C)C(=O)N1CCC[C@H]1C(=O)N1CCC[C@H]1C(=O)N[C@H](C(=O)N[C@@H](CC(N)=O)C(=O)N[C@H](C(=O)NCC(=O)N[C@@H](CO)C(=O)N[C@@H](CC(N)=O)C(=O)N[C@H](C(=O)N1C[C@H](O)C[C@H]1C(N)=O)[C@@H](C)O)C(C)C)[C@@H](C)O

Molecular target: T1, human amylin receptor on CHO-K1/Ga15/AMY3 cells (amylin receptor/CRE-luc cell line) (human) (UniProt P30988)
T1 sequence (looked up) 1: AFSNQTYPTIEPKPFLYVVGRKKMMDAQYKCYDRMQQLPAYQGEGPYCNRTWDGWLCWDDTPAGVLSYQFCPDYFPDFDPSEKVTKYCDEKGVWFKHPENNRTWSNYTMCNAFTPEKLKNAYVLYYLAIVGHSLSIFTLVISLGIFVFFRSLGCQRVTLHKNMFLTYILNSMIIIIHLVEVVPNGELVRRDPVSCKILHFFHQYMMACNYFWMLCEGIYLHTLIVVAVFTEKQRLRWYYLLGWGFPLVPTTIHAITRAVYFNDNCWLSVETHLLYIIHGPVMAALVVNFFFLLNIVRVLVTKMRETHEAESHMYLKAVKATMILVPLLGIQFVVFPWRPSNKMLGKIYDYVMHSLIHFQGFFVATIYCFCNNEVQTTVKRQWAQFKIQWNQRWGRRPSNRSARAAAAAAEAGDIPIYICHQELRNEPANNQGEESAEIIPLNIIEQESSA
T1 sequence (looked up) 2: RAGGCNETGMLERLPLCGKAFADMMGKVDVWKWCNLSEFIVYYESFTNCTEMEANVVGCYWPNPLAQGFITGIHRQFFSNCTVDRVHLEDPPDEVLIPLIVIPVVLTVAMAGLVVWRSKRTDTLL
Assay: cell-based or functional assay

Row | Binder | EC50 (luciferase assay, amylin receptor/CRE-luc CHO cells) [nM] | Relative activity (the EC50 ratio of Cagrilintide to the compound) [%]
1 | B1 | 0.039 | 128
2 | {C20 diacid-Trx′}-ASQLSTAATQRLADFLRHSSNNLKPILPPTNVGSNT[Hyp]-NH2 (reading uncertain) [M29] | 0.122 | 412
3 | {C20 diacid-Inp′}-ASQLSTAATQRLADFLRHSSNNLKPILPPTNVGSNT[Hyp]-NH2 [M30] | 0.039 | 130
4 | B2 | 0.168 | 30
5 | B3 | 0.115 | 44
6 | B4 | 0.145 | 37
